Data as given in patent US20260028403A1 (Zymeworks, published 2026).

Assays:
[1] = molecular target: T1, CD28 on primary human T cells (human, UniProt P10747 19-220); test: cell-based or functional assay
[2] = molecular target: T2, Recombinant human/cynomolgus/rhesus macaque CD28 mouse IgG2a Fc fusion protein (Acro Biosystems) (human/cynomolgus/rhesus macaque, UniProt P10747 19-152); test: SPR, in-format anti-CD28 variants, huCD28
T2 construct: bought; also called huCD28

[3] = molecular target: T1, CD28 on primary human T cells; test: cell-based or functional assay; remark: listed apart in the source

Row | IL-2 maximum cytokine, T cells alone [1] [pg/mL] | IL-2 maximum cytokine, T cells with SNU 601 cells [1] [pg/mL] | TNFa maximum cytokine, T cells alone [1] [pg/mL] | TNFa maximum cytokine, T cells with SNU 601 cells [1] [pg/mL] | Fold-change from WT [2] [fold] | Kd [2] [nM] | koff [2] [s⁻¹] | kon [2] [M⁻¹ s⁻¹] | Binder | IC50, T cell-dependent cytotoxicity on SNU 601 [3] [pM] | Maximum Killing (%), SNU 601 [3] [%]
1 | 293 | 3430 | 56.2 | 516 | 6.4 | 143 | 0.0113 | 80600 | v37684 (trispecific antibody, human IgG1, kappa, L234A L235A, also called v37638 format, CD28 VH G1064S) heavy 1: not shown heavy 2: QVQLVESGGGLVQPGGSLRLSCSVSGIDLSSNPMIWVRQAPGKGLQYIGIIDTDGSTYYADWAKGRFTISKDSTTVYLQINSPRAEDTAVYYCARRLHGSSNGYYDDLWGQGTLVTVSSGGGGSGGGGSGGGGSGGGGSDGQMTQSPSSVSASVGDRVTITCQASQSIYSYLSWYQQKPGQRPKLLIYKASTLASGVPSRFSGSGSGTDFTLTISSVQPEDFATYYCQQGYTVTNVDKNTFGGGTKVEIKAAEPKSSDKTHTCPPCPAPEAAGGPSVFLFPPKPKDTLMISRTPEVTCVVVSVSHEDPEVKFNWYVDGVEVHNAKTKPREEQYNSTYRVVSVLTVLHQDWLNGKEYKCKVSNKALPAPIEKTISKAKGQPREPQVYVLPPSRDELTKNQVSLLCLVKGFYPSDIAVEWESNGQPENNYLTWPPVLDSDGSFFLYSKLTVDKSRWQQGNVFSCSVMHEALHNHYTQKSLSLSPG light: DIQMTQSPSSLSASVGDRVTITCRASESVEYYVTSLMQWYQQKPGKAPKLLIYAASNVDSGVPSRFSGSGSGTDFTLTISSLQPEDIATYYCQQSRKVPFTFGGGTKVEIKRTVAAPSVFIFPPSDEQLKSGTASVVCLLNNFYPREAKVQWKVDNALQSGNSQESVTEQDSKDSTYSLSSTLTLSKADYEKHKVYACEVTHQGLSSPVTKSFNRGEC | 0.34 | 89.3
2 | 190 | 3400 | 25 | 409 | 28.4 | 631 | 0.029 | 67900 | v37685 (trispecific antibody, human IgG1, kappa, L234A L235A, also called v37638 format, CD28 VL V1035G) heavy 1: not shown heavy 2: QVQLVESGGGLVQPGGSLRLSCSVSGIDLSSNPMIWVRQAPGKGLQYIGIIDTDGSTYYADWAKGRFTISKDSTTVYLQINSPRAEDTAVYYCARRLHGSSNGYYDDLWGQGTLVTVSSGGGGSGGGGSGGGGSGGGGSDGQMTQSPSSVSASVGDRVTITCQASQSIYSYLSWYQQKPGQRPKLLIYKASTLASGVPSRFSGSGSGTDFTLTISSVQPEDFATYYCQQGYTVTNVDKNTFGGGTKVEIKAAEPKSSDKTHTCPPCPAPEAAGGPSVFLFPPKPKDTLMISRTPEVTCVVVSVSHEDPEVKFNWYVDGVEVHNAKTKPREEQYNSTYRVVSVLTVLHQDWLNGKEYKCKVSNKALPAPIEKTISKAKGQPREPQVYVLPPSRDELTKNQVSLLCLVKGFYPSDIAVEWESNGQPENNYLTWPPVLDSDGSFFLYSKLTVDKSRWQQGNVFSCSVMHEALHNHYTQKSLSLSPG light: DIQMTQSPSSLSASVGDRVTITCRASESVEYYGTSLMQWYQQKPGKAPKLLIYAASNVDSGVPSRFSGSGSGTDFTLTISSLQPEDIATYYCQQSRKVPFTFGGGTKVEIKRTVAAPSVFIFPPSDEQLKSGTASVVCLLNNFYPREAKVQWKVDNALQSGNSQESVTEQDSKDSTYSLSSTLTLSKADYEKHKVYACEVTHQGLSSPVTKSFNRGEC | 0.81 | 88.7
3 | 388 | 4180 | 41 | 613 | 1.3 | 28.1 | 0.00252 | 89300 | v37686 (trispecific antibody, human IgG1, kappa, L234A L235A, also called v37638 format, CD28 VL D1068E) heavy 1: not shown heavy 2: QVQLVESGGGLVQPGGSLRLSCSVSGIDLSSNPMIWVRQAPGKGLQYIGIIDTDGSTYYADWAKGRFTISKDSTTVYLQINSPRAEDTAVYYCARRLHGSSNGYYDDLWGQGTLVTVSSGGGGSGGGGSGGGGSGGGGSDGQMTQSPSSVSASVGDRVTITCQASQSIYSYLSWYQQKPGQRPKLLIYKASTLASGVPSRFSGSGSGTDFTLTISSVQPEDFATYYCQQGYTVTNVDKNTFGGGTKVEIKAAEPKSSDKTHTCPPCPAPEAAGGPSVFLFPPKPKDTLMISRTPEVTCVVVSVSHEDPEVKFNWYVDGVEVHNAKTKPREEQYNSTYRVVSVLTVLHQDWLNGKEYKCKVSNKALPAPIEKTISKAKGQPREPQVYVLPPSRDELTKNQVSLLCLVKGFYPSDIAVEWESNGQPENNYLTWPPVLDSDGSFFLYSKLTVDKSRWQQGNVFSCSVMHEALHNHYTQKSLSLSPG light: DIQMTQSPSSLSASVGDRVTITCRASESVEYYVTSLMQWYQQKPGKAPKLLIYAASNVESGVPSRFSGSGSGTDFTLTISSLQPEDIATYYCQQSRKVPFTFGGGTKVEIKRTVAAPSVFIFPPSDEQLKSGTASVVCLLNNFYPREAKVQWKVDNALQSGNSQESVTEQDSKDSTYSLSSTLTLSKADYEKHKVYACEVTHQGLSSPVTKSFNRGEC | 0.09 | 88.5
4 | 170 | 4140 | 21.7 | 412 | 2.1 | 47 | 0.00475 | 101000 | v37687 (trispecific antibody, human IgG1, kappa, L234A L235A, also called v37638 format, CD28 VH E1080K) heavy 1: not shown heavy 2: QVQLVESGGGLVQPGGSLRLSCSVSGIDLSSNPMIWVRQAPGKGLQYIGIIDTDGSTYYADWAKGRFTISKDSTTVYLQINSPRAEDTAVYYCARRLHGSSNGYYDDLWGQGTLVTVSSGGGGSGGGGSGGGGSGGGGSDGQMTQSPSSVSASVGDRVTITCQASQSIYSYLSWYQQKPGQRPKLLIYKASTLASGVPSRFSGSGSGTDFTLTISSVQPEDFATYYCQQGYTVTNVDKNTFGGGTKVEIKAAEPKSSDKTHTCPPCPAPEAAGGPSVFLFPPKPKDTLMISRTPEVTCVVVSVSHEDPEVKFNWYVDGVEVHNAKTKPREEQYNSTYRVVSVLTVLHQDWLNGKEYKCKVSNKALPAPIEKTISKAKGQPREPQVYVLPPSRDELTKNQVSLLCLVKGFYPSDIAVEWESNGQPENNYLTWPPVLDSDGSFFLYSKLTVDKSRWQQGNVFSCSVMHEALHNHYTQKSLSLSPG light: DIQMTQSPSSLSASVGDRVTITCRASESVEYYVTSLMQWYQQKPGKAPKLLIYAASNVDSGVPSRFSGSGSGTDFTLTISSLQPEDIATYYCQQSRKVPFTFGGGTKVEIKRTVAAPSVFIFPPSDEQLKSGTASVVCLLNNFYPREAKVQWKVDNALQSGNSQESVTEQDSKDSTYSLSSTLTLSKADYEKHKVYACEVTHQGLSSPVTKSFNRGEC | 0.1 | 88.5
5 | 279 | 3780 | 39.6 | 514 | 1.2 | 25.8 | 0.00253 | 97300 | v37688 (trispecific antibody, human IgG1, kappa, L234A L235A, also called v37638 format, CD28 VH Y1110S) heavy 1: not shown heavy 2: QVQLVESGGGLVQPGGSLRLSCSVSGIDLSSNPMIWVRQAPGKGLQYIGIIDTDGSTYYADWAKGRFTISKDSTTVYLQINSPRAEDTAVYYCARRLHGSSNGYYDDLWGQGTLVTVSSGGGGSGGGGSGGGGSGGGGSDGQMTQSPSSVSASVGDRVTITCQASQSIYSYLSWYQQKPGQRPKLLIYKASTLASGVPSRFSGSGSGTDFTLTISSVQPEDFATYYCQQGYTVTNVDKNTFGGGTKVEIKAAEPKSSDKTHTCPPCPAPEAAGGPSVFLFPPKPKDTLMISRTPEVTCVVVSVSHEDPEVKFNWYVDGVEVHNAKTKPREEQYNSTYRVVSVLTVLHQDWLNGKEYKCKVSNKALPAPIEKTISKAKGQPREPQVYVLPPSRDELTKNQVSLLCLVKGFYPSDIAVEWESNGQPENNYLTWPPVLDSDGSFFLYSKLTVDKSRWQQGNVFSCSVMHEALHNHYTQKSLSLSPG light: DIQMTQSPSSLSASVGDRVTITCRASESVEYYVTSLMQWYQQKPGKAPKLLIYAASNVDSGVPSRFSGSGSGTDFTLTISSLQPEDIATYYCQQSRKVPFTFGGGTKVEIKRTVAAPSVFIFPPSDEQLKSGTASVVCLLNNFYPREAKVQWKVDNALQSGNSQESVTEQDSKDSTYSLSSTLTLSKADYEKHKVYACEVTHQGLSSPVTKSFNRGEC | 0.18 | 87.8
